Results reported in patent US7919580B2, “Polysaccharide-protein binding model and nano-fibril formation of a starch binding domain” (priority 2008, dated 2011).
Substitutions are numbered along the chain they refer to. In names and notes the source's numbering stands.

Legend:
[1] = target: T1, RoGACBM21 (Rhizopus oryzae, UniProt P07683); conditions: reported binding assay results; read-out: Kd (binding affinity) of soluble ligand with RoGACBM21; cited from earlier work
T1 construct: the recombinant SBD of 108 amino acid residues; 6xHis (C); made in house; host or cells: E. coli BL21-Gold (DE3), pET23a(+)

[2] = Sedimentation velocity ultracentrifugation; format: physicochemical
Description: The sedimentation velocity studies were performed at 50,000 rpm for 30 μM (solid line) and 60 μM (dotted line) SBD, and absorbance scans were recorded at 280 nm.

[3] = starch; fold higher than AnGACBM20; cited from earlier work
[4] = Thioflavin T fluorescence (ThT) assay for fibril formation; format: physicochemical; conditions: SBD sample heated at 97° C.
Description: Purified SBDs or synthetic peptides were dissolved in 10 mM sodium-citrate or phosphate-citrate buffer to a final concentration of 100 μM (at indicated pH). […] The measurements were recorded in a Perkin Elmer LS-55 spectrofluorometer at 25° C.
The relative fluorescence, peaked at 482 nm, subtracted from the background of buffer from the total fluorescence were measured as the amount of fibrillar aggregates with the excitation wavelength (slit width=4 nm) set at 450 nm and monitoring emission wavelength (slit width=8 nm) set at from 470 to 630 nm.

[5] = Starch binding isotherm (saturation binding assay); conditions: insoluble starch, 50 mM sodium acetate pH 5.5, 25° C., 16 h
Description: The starch binding isotherm was analyzed as a saturation binding assay as reported. Wild-type and mutant RoGACBM21 derivatives (100 μL, in 50 mM sodium acetate, pH 5.5) were mixed with 0.1 mg of prewashed insoluble starch and incubated at 25° C. with gentle stirring for 16 h. After centrifugation at 16,000×g for 10 min at 4° C., the protein concentration of the supernatant (unbound protein) was determined by BCA assay, and the amount of bound protein was calculated from the difference between the initial and unbound protein concentrations. The Kd and Bmax values were determined by fitting to the non-linear regression of the binding isotherms using a standard single-site binding model.

[6] = Fluorescence spectrophotometry of binding to βCD; conditions: intrinsic protein fluorescence, 50 mM sodium acetate pH 5.5, 25° C.; read-out: β-cyclodextrin Kd
Description: Fluorescence spectrophotometry of the binding of wild-type or mutant RoGACBM21 to βCD was recorded by measuring changes in the intrinsic protein fluorescence intensity. Experiments were performed in 50 mM sodium acetate, pH 5.5, at 25° C. using a PerkinElmer LS-55 spectrophotometer. Circular and linear carbohydrates (2 to 20 mM) were titrated into RoGACBM21 (1 μM, 2 mL), and the fluorescence-emission spectrum was monitored at 350 nm with a fixed excitation at 280 nm. The relative changes in fluorescence intensity were plotted against ligand concentration, and the data were fitted to a simulated curve using the appropriate equation for a single binding site.

[7] = Circular dichroism spectroscopy and thermal unfolding; format: physicochemical; conditions: far-UV CD at 215 nm; for β-sheet signals upon heating: ascending temperature
Description: (A) CD spectra were collected from 200 to 260 nm at 25° C. at a concentration of 50 μM in 10 mM sodium acetate buffer (pH 4.5). (B) Thermal unfolding of SBD was measured by monitoring changes in the far-UV CD spectra at 215 nm. (C) CD spectra of SBD were recorded between 200 and 260 nm at various temperatures
CD spectra and thermostabilities were recorded in a 0.1-cm cuvette using an Aviv model 202 CD Spectrometer. Data collection and calculation were carried out as previously described.

Molecule: maltoheptaose [G7]
- Kd [1]: ~5 µM

Molecule: OC[C@H]1O[C@@H]2O[C@H]3[C@H](O)[C@@H](O)[C@@H](O[C@H]4[C@H](O)[C@@H](O)[C@@H](O[C@H]5[C@H](O)[C@@H](O)[C@@H](O[C@H]6[C@H](O)[C@@H](O)[C@@H](O[C@H]7[C@H](O)[C@@H](O)[C@@H](O[C@H]8[C@H](O)[C@@H](O)[C@@H](O[C@H]1[C@H](O)[C@H]2O)O[C@@H]8CO)O[C@@H]7CO)O[C@@H]6CO)O[C@@H]5CO)O[C@@H]4CO)O[C@@H]3CO [βCD, β-cyclodextrin]
- Kd [1]: ~5 µM

B1: WT: recombinant starch-binding domain (family 21 carbohydrate binding module) of Rhizopus oryzae glucoamylase, 108 amino acid residues (protein, listed as Rhizopus oryzae)
chain: ASIPSSASVQLDSYNYDGSTFSGKIYVKNIAYSKKVTVVYADGSDNWNNNGNIIAASFSGPISGSNYEYWTFSASVKGIKEFYIKYEVSGKTYYDNNNSANYQVSTSK
modifications: DOMAIN (1)..(108)
- s20 (sedimentation coefficient) ([2]; 30 μM, 50,000 rpm): 1.3 S
- oligomeric state in solution ([2]; high concentration (60 μM)): oligomeric forms of SBD appeared
- oligomeric state in solution ([2]; low concentration (30 μM)): mainly as a single monomeric species
- maximal amount of bound protein (Bmax) relative to AnGACBM20 [3]: 40-70 fold
- increase in ThT fluorescence emission intensity at 482 nm [4]: 9 fold
- Kd [5]: 1.4 ± 0.1 µM
- Starch Bmax [5]: 41.1 ± 1.1 µmol/g
- Kd [6]: 5.1 ± 0.7 µM
- apparent temperature for unfolding [7]: approximately 65 °C

B2: SBD (K108R): SBD mutant K108R (protein)
chain: B1 chain with K108R
modifications: Modified SBD.
- β-sheet signals upon heating [7]: still showed strong β-sheet signals upon heating

B3: SBD (K108D): SBD mutant K108D (protein)
chain: B1 chain with K108D
modifications: Modified SBD.
- β-sheet signals upon heating [7]: diminished the β-sheet signals upon heating

B4: SBD (K108H): SBD mutant K108H (protein)
chain: B1 chain with K108H
modifications: Modified SBD.
- β-sheet signals upon heating [7]: still showed strong β-sheet signals upon heating
